Experimental data reported in patent US20240018252A1 (Pfizer, published 2024).

T1: human BCMA (human, UniProt Q02223 1-54)
T1 construct: also called huBCMA; hBCMA
T1 sequence: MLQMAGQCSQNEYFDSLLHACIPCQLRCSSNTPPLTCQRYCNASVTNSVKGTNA

B1: L1.GDF/L3.KW/H3.AL (antibody, V domains shown)
VH: EVQLLESGGGLVQPGGSLRLSCAASGFTFGSYAMTWVRQAPGKGLEWVSAISGSGGNTFYADSVKGRFTISRDNSKNTLYLQMNSLRAEDTAVYYCARVSPIAALMDYWGQGTLVTVSS
VL: EIVLTQSPGTLSLSPGERATLSCRASQSVGDFYLAWYQQKPGQAPRLLIYGASSRATGIPDRFSGSGSGTDFTLTISRLEPEDFAVYYCKHYGWPPSFTFGQGTKVEIK
notes: IgG in the assay
B2: P6E01/P6E01 (antibody, V domains shown)
VH: EVQLLESGGGLVQPGGSLRLSCAASGFTFGSYAMTWVRQAPGKGLEWVSAISGSGGNTFYADSVKGRFTISRDNSKNTLYLQMNSLRAEDTAVYYCARVSPIASGMDYWGQGTLVTVSS
VL: not shown
notes: IgG in the assay; also called P6E01_VHVL
B3: L1.LGF/L3.KW/H3.AL (antibody, V domains shown)
VH: EVQLLESGGGLVQPGGSLRLSCAASGFTFGSYAMTWVRQAPGKGLEWVSAISGSGGNTFYADSVKGRFTISRDNSKNTLYLQMNSLRAEDTAVYYCARVSPIAALMDYWGQGTLVTVSS
VL: EIVLTQSPGTLSLSPGERATLSCRASQSLGSFYLAWYQQKPGQAPRLLIYGASSRATGIPDRFSGSGSGTDFTLTISRLEPEDFAVYYCKHYGWPPSFTFGQGTKVEIK
notes: IgG in the assay
B4: L1.GDF/L3.NY/H3.AP (antibody, V domains shown)
VH: EVQLLESGGGLVQPGGSLRLSCAASGFTFGSYAMTWVRQAPGKGLEWVSAISGSGGNTFYADSVKGRFTISRDNSKNTLYLQMNSLRAEDTAVYYCARVSPIAAPMDYWGQGTLVTVSS
VL: EIVLTQSPGTLSLSPGERATLSCRASQSVGDFYLAWYQQKPGQAPRLLIYGASSRATGIPDRFSGSGSGTDFTLTISRLEPEDFAVYYCQHYNYPPSFTFGQGTKVEIK
notes: IgG in the assay
B5: L1.LGF/L3.KW/P6E01 (antibody, V domains shown)
VH: EVQLLESGGGLVQPGGSLRLSCAASGFTFGSYAMTWVRQAPGKGLEWVSAISGSGGNTFYADSVKGRFTISRDNSKNTLYLQMNSLRAEDTAVYYCARVSPIASGMDYWGQGTLVTVSS
VL: EIVLTQSPGTLSLSPGERATLSCRASQSLGSFYLAWYQQKPGQAPRLLIYGASSRATGIPDRFSGSGSGTDFTLTISRLEPEDFAVYYCKHYGWPPSFTFGQGTKVEIK
notes: IgG in the assay
B6: L1.LGF/L3.NY/H3.AP (antibody, V domains shown)
VH: EVQLLESGGGLVQPGGSLRLSCAASGFTFGSYAMTWVRQAPGKGLEWVSAISGSGGNTFYADSVKGRFTISRDNSKNTLYLQMNSLRAEDTAVYYCARVSPIAAPMDYWGQGTLVTVSS
VL: EIVLTQSPGTLSLSPGERATLSCRASQSLGSFYLAWYQQKPGQAPRLLIYGASSRATGIPDRFSGSGSGTDFTLTISRLEPEDFAVYYCQHYNYPPSFTFGQGTKVEIK
notes: IgG in the assay
B7: L1.LGF/L3.PY/H3.AQ (antibody, V domains shown)
VH: EVQLLESGGGLVQPGGSLRLSCAASGFTFGSYAMTWVRQAPGKGLEWVSAISGSGGNTFYADSVKGRFTISRDNSKNTLYLQMNSLRAEDTAVYYCARVSPIAAQMDYWGQGTLVTVSS
VL: EIVLTQSPGTLSLSPGERATLSCRASQSLGSFYLAWYQQKPGQAPRLLIYGASSRATGIPDRFSGSGSGTDFTLTISRLEPEDFAVYYCQHYPYPPSFTFGQGTKVEIK
notes: IgG in the assay
B8: L3.PY/L3.KY/P6E01 (antibody, V domains shown)
VH: EVQLLESGGGLVQPGGSLRLSCAASGFTFGSYAMTWVRQAPGKGLEWVSAISGSGGNTFYADSVKGRFTISRDNSKNTLYLQMNSLRAEDTAVYYCARVSPIASGMDYWGQGTLVTVSS
VL: EIVLTQSPGTLSLSPGERATLSCRASQSVSSSYLAWYQQKPGQAPRLLIYGASSRATGIPDRFSGSGSGTDFTLTISRLEPEDFAVYYCKYYPYPPSFTFGQGTKVEIK
notes: IgG in the assay
B9: L1.GDF/L3.KW/H3.AP (antibody, V domains shown)
VH: EVQLLESGGGLVQPGGSLRLSCAASGFTFGSYAMTWVRQAPGKGLEWVSAISGSGGNTFYADSVKGRFTISRDNSKNTLYLQMNSLRAEDTAVYYCARVSPIAAPMDYWGQGTLVTVSS
VL: EIVLTQSPGTLSLSPGERATLSCRASQSVGDFYLAWYQQKPGQAPRLLIYGASSRATGIPDRFSGSGSGTDFTLTISRLEPEDFAVYYCKHYGWPPSFTFGQGTKVEIK
notes: IgG in the assay
B10: L1.GDF/L3.NY/H3.AL (antibody, V domains shown)
VH: EVQLLESGGGLVQPGGSLRLSCAASGFTFGSYAMTWVRQAPGKGLEWVSAISGSGGNTFYADSVKGRFTISRDNSKNTLYLQMNSLRAEDTAVYYCARVSPIAALMDYWGQGTLVTVSS
VL: EIVLTQSPGTLSLSPGERATLSCRASQSVGDFYLAWYQQKPGQAPRLLIYGASSRATGIPDRFSGSGSGTDFTLTISRLEPEDFAVYYCQHYNYPPSFTFGQGTKVEIK
notes: IgG in the assay
B11: L1.GDF/L3.KW/H3.AQ (antibody, V domains shown)
VH: EVQLLESGGGLVQPGGSLRLSCAASGFTFGSYAMTWVRQAPGKGLEWVSAISGSGGNTFYADSVKGRFTISRDNSKNTLYLQMNSLRAEDTAVYYCARVSPIAAQMDYWGQGTLVTVSS
VL: EIVLTQSPGTLSLSPGERATLSCRASQSVGDFYLAWYQQKPGQAPRLLIYGASSRATGIPDRFSGSGSGTDFTLTISRLEPEDFAVYYCKHYGWPPSFTFGQGTKVEIK
notes: IgG in the assay
B12: L1.GDF/L3.NY/H3.AQ (antibody, V domains shown)
VH: EVQLLESGGGLVQPGGSLRLSCAASGFTFGSYAMTWVRQAPGKGLEWVSAISGSGGNTFYADSVKGRFTISRDNSKNTLYLQMNSLRAEDTAVYYCARVSPIAAQMDYWGQGTLVTVSS
VL: EIVLTQSPGTLSLSPGERATLSCRASQSVGDFYLAWYQQKPGQAPRLLIYGASSRATGIPDRFSGSGSGTDFTLTISRLEPEDFAVYYCQHYNYPPSFTFGQGTKVEIK
notes: IgG in the assay
B13: L1.LGF/L3.NY/H3.AL (antibody, V domains shown)
VH: EVQLLESGGGLVQPGGSLRLSCAASGFTFGSYAMTWVRQAPGKGLEWVSAISGSGGNTFYADSVKGRFTISRDNSKNTLYLQMNSLRAEDTAVYYCARVSPIAALMDYWGQGTLVTVSS
VL: EIVLTQSPGTLSLSPGERATLSCRASQSLGSFYLAWYQQKPGQAPRLLIYGASSRATGIPDRFSGSGSGTDFTLTISRLEPEDFAVYYCQHYNYPPSFTFGQGTKVEIK
notes: IgG in the assay
B14: L1.GDF/L3.NY/P6E01 (antibody, V domains shown)
VH: EVQLLESGGGLVQPGGSLRLSCAASGFTFGSYAMTWVRQAPGKGLEWVSAISGSGGNTFYADSVKGRFTISRDNSKNTLYLQMNSLRAEDTAVYYCARVSPIASGMDYWGQGTLVTVSS
VL: EIVLTQSPGTLSLSPGERATLSCRASQSVGDFYLAWYQQKPGQAPRLLIYGASSRATGIPDRFSGSGSGTDFTLTISRLEPEDFAVYYCQHYNYPPSFTFGQGTKVEIK
notes: IgG in the assay
B15: L1.LGF/L3.NY/P6E01 (antibody, V domains shown)
VH: EVQLLESGGGLVQPGGSLRLSCAASGFTFGSYAMTWVRQAPGKGLEWVSAISGSGGNTFYADSVKGRFTISRDNSKNTLYLQMNSLRAEDTAVYYCARVSPIASGMDYWGQGTLVTVSS
VL: EIVLTQSPGTLSLSPGERATLSCRASQSLGSFYLAWYQQKPGQAPRLLIYGASSRATGIPDRFSGSGSGTDFTLTISRLEPEDFAVYYCQHYNYPPSFTFGQGTKVEIK
notes: IgG in the assay
B16: L1.GDF/L3.PY/H3.AQ (antibody, V domains shown)
VH: EVQLLESGGGLVQPGGSLRLSCAASGFTFGSYAMTWVRQAPGKGLEWVSAISGSGGNTFYADSVKGRFTISRDNSKNTLYLQMNSLRAEDTAVYYCARVSPIAAQMDYWGQGTLVTVSS
VL: EIVLTQSPGTLSLSPGERATLSCRASQSVGDFYLAWYQQKPGQAPRLLIYGASSRATGIPDRFSGSGSGTDFTLTISRLEPEDFAVYYCQHYPYPPSFTFGQGTKVEIK
notes: IgG in the assay
B17: L1.LGF/L3.KW/H3.AP (antibody, V domains shown)
VH: EVQLLESGGGLVQPGGSLRLSCAASGFTFGSYAMTWVRQAPGKGLEWVSAISGSGGNTFYADSVKGRFTISRDNSKNTLYLQMNSLRAEDTAVYYCARVSPIAAPMDYWGQGTLVTVSS
VL: EIVLTQSPGTLSLSPGERATLSCRASQSLGSFYLAWYQQKPGQAPRLLIYGASSRATGIPDRFSGSGSGTDFTLTISRLEPEDFAVYYCKHYGWPPSFTFGQGTKVEIK
notes: IgG in the assay
B18: L1.LGF/L3.PY/H3.AP (antibody, V domains shown)
VH: EVQLLESGGGLVQPGGSLRLSCAASGFTFGSYAMTWVRQAPGKGLEWVSAISGSGGNTFYADSVKGRFTISRDNSKNTLYLQMNSLRAEDTAVYYCARVSPIAAPMDYWGQGTLVTVSS
VL: EIVLTQSPGTLSLSPGERATLSCRASQSLGSFYLAWYQQKPGQAPRLLIYGASSRATGIPDRFSGSGSGTDFTLTISRLEPEDFAVYYCQHYPYPPSFTFGQGTKVEIK
notes: IgG in the assay
B19: P6E01/H3.AQ (antibody, V domains shown)
VH: EVQLLESGGGLVQPGGSLRLSCAASGFTFGSYAMTWVRQAPGKGLEWVSAISGSGGNTFYADSVKGRFTISRDNSKNTLYLQMNSLRAEDTAVYYCARVSPIAAQMDYWGQGTLVTVSS
VL: not shown
notes: IgG in the assay
B20: L1.LGF/L3.KW/H3.AQ (antibody, V domains shown)
VH: EVQLLESGGGLVQPGGSLRLSCAASGFTFGSYAMTWVRQAPGKGLEWVSAISGSGGNTFYADSVKGRFTISRDNSKNTLYLQMNSLRAEDTAVYYCARVSPIAAQMDYWGQGTLVTVSS
VL: EIVLTQSPGTLSLSPGERATLSCRASQSLGSFYLAWYQQKPGQAPRLLIYGASSRATGIPDRFSGSGSGTDFTLTISRLEPEDFAVYYCKHYGWPPSFTFGQGTKVEIK
notes: IgG in the assay
B21: L1.LGF/L3.NY/H3.AQ (antibody, V domains shown)
VH: EVQLLESGGGLVQPGGSLRLSCAASGFTFGSYAMTWVRQAPGKGLEWVSAISGSGGNTFYADSVKGRFTISRDNSKNTLYLQMNSLRAEDTAVYYCARVSPIAAQMDYWGQGTLVTVSS
VL: EIVLTQSPGTLSLSPGERATLSCRASQSLGSFYLAWYQQKPGQAPRLLIYGASSRATGIPDRFSGSGSGTDFTLTISRLEPEDFAVYYCQHYNYPPSFTFGQGTKVEIK
notes: IgG in the assay

What was measured:
[1] = molecular target: T1, human BCMA; assay: SPR, immobilised IgG, 25° C
[2] = molecular target: T2, cyBCMA (cynomolgus, UniProt A0A2K5UD97 1-53); assay: SPR, immobilised IgG, 25° C
T2 construct: Soluble analyte in SPR; construct not described; also called cyno BCMA
T2 sequence (A0A2K5UD97 entry or part of it): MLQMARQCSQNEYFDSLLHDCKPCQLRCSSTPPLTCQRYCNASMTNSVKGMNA

[3] = molecular target: T1, human BCMA; assay: SPR, immobilised IgG, 37° C
[4] = molecular target: T2, cyBCMA; assay: SPR, immobilised IgG, 37° C

Binder | T½ [1] | T½ [2] | T½ [3] | T½ [4]
B1 | 2.96 min | 0.6 min |  | 
B2 | 2.8 min |  |  | 
B3 | 9.4 min | 1 min |  | 
B4 | 8.21 min | 1.6 min |  | 
B5 | 1.53 min | 0.6 min |  | 
B6 | 21.7 min | 2.1 min |  | 
B7 | 13 min | 2.4 min |  | 
B8 |  |  | 10.7 min | 2.3 min
B9 | 2.51 min | 0.6 min |  | 
B10 | 2.87 min | 0.5 min |  | 
B11 | 3.32 min | 2 min |  | 
B12 | 16 min | 8.5 min |  | 
B13 | 11.9 min | 0.8 min |  | 
B14 | 1.95 min | 1.5 min |  | 
B15 | 2.63 min | 1.1 min |  | 
B16 | 0.86 min | 0.7 min |  | 
B17 | 5.1 min | 0.7 min |  | 
B18 | 11.9 min | 0.9 min |  | 
B19 | 33.5 min |  |  | 
B20 | 12.1 min | 3.3 min |  | 
B21 | 38.6 min | 7.8 min |  | 
